Measurements taken from publication PMC4351158 (Structure (London, England : 1993), 2015).
Substitutions are numbered along the chain they refer to. Where no end group is shown, it is not given here. fluorescein = fluorescein, a fluorescent label on the peptide N-terminus

Columns and labels:
Assay in all cases: fluorescence polarisation
DegS P229A = target: T1, DegS P229A (E. coli, UniProt P0AEE3 27-355, P229A)
T1 sequence (looked up): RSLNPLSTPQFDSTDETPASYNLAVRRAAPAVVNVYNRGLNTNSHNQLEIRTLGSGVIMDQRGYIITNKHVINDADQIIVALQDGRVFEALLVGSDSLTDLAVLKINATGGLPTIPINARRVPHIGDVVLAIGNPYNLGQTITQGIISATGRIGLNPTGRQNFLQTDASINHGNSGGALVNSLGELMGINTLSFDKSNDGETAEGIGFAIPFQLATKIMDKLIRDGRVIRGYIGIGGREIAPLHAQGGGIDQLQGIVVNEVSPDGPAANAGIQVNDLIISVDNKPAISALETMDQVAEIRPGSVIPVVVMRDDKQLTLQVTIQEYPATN

DegS T167V/H198P = target: T2, DegS T167V/H198P (E. coli, UniProt P0AEE3 27-355, T167V | H198P)
T2 sequence (looked up): T1 sequence (looked up) with T141V, H172P, A203P

DegS T167V = target: T3, DegS T167V (E. coli, UniProt P0AEE3 27-355, T167V)
T3 sequence (looked up): T1 sequence (looked up) with T141V, A203P

DegS H198P = target: T4, DegS H198P (E. coli, UniProt P0AEE3 27-355, H198P)
T4 sequence (looked up): T1 sequence (looked up) with H172P, A203P

DegS R178A/H198P = target: T5, DegS R178A/H198P (E. coli, UniProt P0AEE3 27-355, R178A | H198P)
T5 sequence (looked up): T1 sequence (looked up) with R152A, H172P, A203P

DegS D221A = target: T6, DegS D221A (E. coli, UniProt P0AEE3 27-355, D221A)
T6 sequence (looked up): T1 sequence (looked up) with D195A, A203P

fluorescein-DNRDGNVYYF [fluorescent OMP peptide fluorescein-DNRDGNVYYF]
Kd (DegS P229A): 1600 ± 200 nM
Kd (DegS T167V/H198P): 1900 ± 700 nM
Kd (DegS T167V): 1800 ± 100 nM
Kd (DegS H198P): 2500 ± 300 nM
Kd (DegS R178A/H198P): 4000 ± 100 nM
Kd (DegS D221A): 3200 ± 200 nM
